Laboratory results from patent US20200155602A1 (IMMATICS BIOTECHNOLOGIES, published 2020).

Target: T1, HLA-A*02:01 (human)
T1 construct: Peptide-receptive HLA-A*02:01 monomer obtained by UV cleavage of a UV-sensitive ligand; captured on streptavidin plates; also called peptide-receptive MHC molecules; MHC class I
Test: UV-ligand exchange, anti-b2m ELISA; grade of peptide exchange yield (>10% = +; >20% = ++; >50 = +++; >75% = ++++)
Text: Candidate peptides for T cell based therapies according to the present invention were further tested for their MHC binding capacity (affinity). The individual peptide-MHC complexes were produced by UV-ligand exchange, where a UV-sensitive peptide is cleaved upon UV-irradiation, and exchanged with the peptide of interest as analyzed. Only peptide candidates that can effectively bind and stabilize the peptide-receptive MHC molecules prevent dissociation of the MHC complexes. To determine the yield of the exchange reaction, an ELISA was performed based on the detection of the light chain (β2m) of stabilized MHC complexes. The assay was performed as generally described in Rodenko et al. (Rodenko et al., 2006).
96 well MAXISorp plates (NUNC) were coated over night with 2 ug/ml streptavidin in PBS at room temperature, washed 4× and blocked for 1 h at 37° C. in 2% BSA containing blocking buffer. Refolded HLA-A*02:01/MLA-001 monomers served as standards, covering the range of 15-500 ng/ml. Peptide-MHC monomers of the UV-exchange reaction were diluted 100-fold in blocking buffer. Samples were incubated for 1 h at 37° C., washed four times, incubated with 2 ug/ml HRP conjugated anti-β2m for 1 h at 37° C., washed again and detected with TMB solution that is stopped with […]. Absorption was measured at 450 nm. […]

Work on SLTSFLISL yielded a peptide exchange yield of 50 to 75%.
